Laboratory results from the supplement of paper PMC9112550, “Optimization of the antimicrobial peptide Bac7 by deep mutational scanning” (BMC Biology, 2022).

Tested on: Escherichia coli TOP10
Experiment: shrunken log2 fold change of peptide-encoding DNA abundance (4.5 h post-induction vs induction); higher = less antimicrobial activity (less host growth inhibition)
Settings: time post-induction: 4.5 h; library: site-saturation at positions 5, 18, 19, 20
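Note: peptides expressed intracellularly from a pBAD plasmid library in pooled LB shake-flask culture, induced with 0.3% L-arabinose, DNA abundance read by NGS, three biological replicates, DESeq2 with apeglm shrinkage.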

Point of comparison: RRIRARPPRLPRPRPRPEGYPRP, “shrunken log2 fold change” value 0.582. Against it:
- RRIRARPPRLPRPRPRPACSPRP — within 0.2 log units, 0.591
- RRIRARPPRLPRPRPRPADPPRP — within 0.2 log units, 0.611
- RRIRARPPRLPRPRPRPAEGPRP — higher, 0.818
- RRIRARPPRLPRPRPRPAGEPRP — higher, 0.921
- RRIRARPPRLPRPRPRPAHNPRP — lower, 0.155
- RRIRARPPRLPRPRPRPAHQPRP — within 0.2 log units, 0.568
- RRIRARPPRLPRPRPRPAINPRP — lower, -0.00878
- RRIRARPPRLPRPRPRPAIPPRP — lower, -0.101
- RRIRARPPRLPRPRPRPAKEPRP — within 0.2 log units, 0.521
- RRIRARPPRLPRPRPRPAKVPRP — lower, 0.167
- RRIRARPPRLPRPRPRPALYPRP — lower, 0.332
- RRIRARPPRLPRPRPRPAMGPRP — within 0.2 log units, 0.505
- RRIRARPPRLPRPRPRPAMPPRP — lower, -0.131
- RRIRARPPRLPRPRPRPANCPRP — lower, 0.186
- RRIRARPPRLPRPRPRPANSPRP — lower, 0.329
- RRIRARPPRLPRPRPRPAPLPRP — lower, 0.367
- RRIRARPPRLPRPRPRPAPWPRP — within 0.2 log units, 0.632
- RRIRARPPRLPRPRPRPASAPRP — within 0.2 log units, 0.52
- RRIRARPPRLPRPRPRPASYPRP — lower, 0.187
- RRIRARPPRLPRPRPRPATLPRP — lower, 0.34
- RRIRARPPRLPRPRPRPAWEPRP — higher, 0.925
- RRIRARPPRLPRPRPRPAYKPRP — lower, -0.0413
- RRIRARPPRLPRPRPRPCAMPRP — within 0.2 log units, 0.397
- RRIRARPPRLPRPRPRPCCAPRP — within 0.2 log units, 0.774
- RRIRARPPRLPRPRPRPCCGPRP — within 0.2 log units, 0.525
- RRIRARPPRLPRPRPRPCDKPRP — lower, -0.152
- RRIRARPPRLPRPRPRPCDWPRP — lower, 0.353
- RRIRARPPRLPRPRPRPCEGPRP — lower, 0.0679
- RRIRARPPRLPRPRPRPCHRPRP — lower, 0.0386
- RRIRARPPRLPRPRPRPCINPRP — lower, -0.353
- RRIRARPPRLPRPRPRPCKMPRP — lower, 0.145
- RRIRARPPRLPRPRPRPCMKPRP — lower, -0.167
- RRIRARPPRLPRPRPRPCNCPRP — lower, 0.00702
- RRIRARPPRLPRPRPRPCPEPRP — lower, 0.179
- RRIRARPPRLPRPRPRPCPLPRP — lower, -0.132
- RRIRARPPRLPRPRPRPCRIPRP — lower, -0.0344
- RRIRARPPRLPRPRPRPCRVPRP — lower, -0.19
- RRIRARPPRLPRPRPRPCSIPRP — lower, -0.092
- RRIRARPPRLPRPRPRPCTEPRP — lower, -0.0123
- RRIRARPPRLPRPRPRPCTVPRP — lower, -0.26
- RRIRARPPRLPRPRPRPCWAPRP — lower, 0.119
- RRIRARPPRLPRPRPRPCYKPRP — lower, -0.0942
- RRIRARPPRLPRPRPRPDAVPRP — within 0.2 log units, 0.683
- RRIRARPPRLPRPRPRPDCNPRP — within 0.2 log units, 0.606
- RRIRARPPRLPRPRPRPDCTPRP — lower, 0.27
- RRIRARPPRLPRPRPRPDDNPRP — lower, 0.248
- RRIRARPPRLPRPRPRPDEIPRP — lower, 0.357
- RRIRARPPRLPRPRPRPDFFPRP — lower, 0.307
- RRIRARPPRLPRPRPRPDGCPRP — lower, 0.239
- RRIRARPPRLPRPRPRPDHLPRP — lower, -0.0183
- RRIRARPPRLPRPRPRPDHYPRP — lower, -0.287
- RRIRARPPRLPRPRPRPDIVPRP — lower, 0.244
- RRIRARPPRLPRPRPRPDLFPRP — higher, 1.09
- RRIRARPPRLPRPRPRPDLQPRP — higher, 0.79
- RRIRARPPRLPRPRPRPDPKPRP — lower, 0.268
- RRIRARPPRLPRPRPRPDRTPRP — lower, 0.192
- RRIRARPPRLPRPRPRPDTQPRP — lower, 0.374
- RRIRARPPRLPRPRPRPDVPPRP — lower, -0.0329
- RRIRARPPRLPRPRPRPDWPPRP — higher, 0.98
- RRIRARPPRLPRPRPRPDYKPRP — lower, -0.0382
- RRIRARPPRLPRPRPRPEADPRP — higher, 1.53
- RRIRARPPRLPRPRPRPECKPRP — within 0.2 log units, 0.769
- RRIRARPPRLPRPRPRPEDHPRP — within 0.2 log units, 0.392
- RRIRARPPRLPRPRPRPEEHPRP — lower, -0.0106
- RRIRARPPRLPRPRPRPEFVPRP — higher, 1.05
- RRIRARPPRLPRPRPRPEGFPRP — within 0.2 log units, 0.566
- RRIRARPPRLPRPRPRPEGWPRP — higher, 1.38
- RRIRARPPRLPRPRPRPEHWPRP — lower, 0.261
- RRIRARPPRLPRPRPRPEPPPRP — higher, 1.27
- RRIRARPPRLPRPRPRPEQIPRP — within 0.2 log units, 0.419
- RRIRARPPRLPRPRPRPEQVPRP — within 0.2 log units, 0.453
- RRIRARPPRLPRPRPRPESQPRP — within 0.2 log units, 0.454
- RRIRARPPRLPRPRPRPETCPRP — lower, 0.331
- RRIRARPPRLPRPRPRPEWCPRP — within 0.2 log units, 0.72
- RRIRARPPRLPRPRPRPEYPPRP — lower, 0.0126
- RRIRARPPRLPRPRPRPFAPPRP — within 0.2 log units, 0.61
- RRIRARPPRLPRPRPRPFEFPRP — lower, 0.0786
- RRIRARPPRLPRPRPRPFFQPRP — lower, 0.107
- RRIRARPPRLPRPRPRPFFVPRP — lower, 0.149
- RRIRARPPRLPRPRPRPFGMPRP — lower, 0.0196
- RRIRARPPRLPRPRPRPFHAPRP — lower, -0.0904
- RRIRARPPRLPRPRPRPFHKPRP — lower, -0.148
- RRIRARPPRLPRPRPRPFKMPRP — lower, -0.253
- RRIRARPPRLPRPRPRPFLPPRP — lower, -0.379
- RRIRARPPRLPRPRPRPFLWPRP — lower, -0.0716
- RRIRARPPRLPRPRPRPFMHPRP — lower, 0.229
- RRIRARPPRLPRPRPRPFQEPRP — lower, 0.127
- RRIRARPPRLPRPRPRPFRNPRP — lower, -0.575
- RRIRARPPRLPRPRPRPFTDPRP — lower, 0.128
- RRIRARPPRLPRPRPRPFTKPRP — lower, -0.295
- RRIRARPPRLPRPRPRPFVAPRP — lower, 0.254
- RRIRARPPRLPRPRPRPFVPPRP — lower, -0.0963
- RRIRARPPRLPRPRPRPFWGPRP — lower, 0.0148
- RRIRARPPRLPRPRPRPFYAPRP — lower, -0.066
- RRIRARPPRLPRPRPRPFYGPRP — lower, -0.0165
- RRIRARPPRLPRPRPRPFYKPRP — lower, -0.009
- RRIRARPPRLPRPRPRPFYPPRP — lower, -0.104
- RRIRARPPRLPRPRPRPFYYPRP — lower, -0.485
- RRIRARPPRLPRPRPRPGAFPRP — within 0.2 log units, 0.454
- RRIRARPPRLPRPRPRPGCIPRP — lower, 0.315
- RRIRARPPRLPRPRPRPGCLPRP — within 0.2 log units, 0.419
- RRIRARPPRLPRPRPRPGDVPRP — lower, 0.194
- RRIRARPPRLPRPRPRPGEYPRP — lower, 0.0829
- RRIRARPPRLPRPRPRPGFHPRP — lower, 0.245
- RRIRARPPRLPRPRPRPGFMPRP — lower, 0.14
- RRIRARPPRLPRPRPRPGGKPRP — within 0.2 log units, 0.563
- RRIRARPPRLPRPRPRPGGWPRP — higher, 1.26
- RRIRARPPRLPRPRPRPGHAPRP — lower, 0.16
